Assay results taken from the supplement of paper PMC9112550, “Optimization of the antimicrobial peptide Bac7 by deep mutational scanning” (BMC Biology, 2022).

tested on: Escherichia coli TOP10; experiment: shrunken log2 fold change of peptide-encoding DNA abundance (4.5 h post-induction vs induction); higher = less antimicrobial activity (less host growth inhibition); conditions: time post-induction: 4.5 h; library: site-saturation at positions 5, 18, 19, 20
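Further: peptides expressed intracellularly from a pBAD plasmid library in pooled LB shake-flask culture, induced with 0.3% L-arabinose, DNA abundance read by NGS, three biological replicates, DESeq2 with apeglm shrinkage.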

Point of comparison: RRIRHRPPRLPRPRPRPVTRPRP, “shrunken log2 fold change” value -0.00217. Against it:
- RRIRDRPPRLPRPRPRPYGSPRP — within 0.2 log units, -0.0409
- RRIRARPPRLPRPRPRPDGQPRP — within 0.2 log units, 0.0234
- RRIRQRPPRLPRPRPRPWQIPRP — within 0.2 log units, -0.0838
- RRIRARPPRLPRPRPRPIEGPRP — higher, 0.504
- RRIRQRPPRLPRPRPRPQCKPRP — within 0.2 log units, -0.102
- RRIRVRPPRLPRPRPRPWTGPRP — within 0.2 log units, -0.0167
- RRIRDRPPRLPRPRPRPFQHPRP — within 0.2 log units, -0.202
- RRIRWRPPRLPRPRPRPSAHPRP — within 0.2 log units, 0.062
- RRIRERPPRLPRPRPRPLTIPRP — within 0.2 log units, -0.101
- RRIRPRPPRLPRPRPRPSQKPRP — within 0.2 log units, 0.188
- RRIRMRPPRLPRPRPRPIPGPRP — within 0.2 log units, 0.105
- RRIRVRPPRLPRPRPRPYWHPRP — lower, -0.636
- RRIRRRPPRLPRPRPRPTYMPRP — lower, -0.242
- RRIRPRPPRLPRPRPRPSYLPRP — lower, -0.562
- RRIRQRPPRLPRPRPRPNDYPRP — within 0.2 log units, -0.179
- RRIRIRPPRLPRPRPRPFNFPRP — lower, -0.31
- RRIRVRPPRLPRPRPRPLPKPRP — higher, 0.361
- RRIRARPPRLPRPRPRPVQMPRP — higher, 0.21
- RRIRARPPRLPRPRPRPDYYPRP — within 0.2 log units, -0.135
- RRIRKRPPRLPRPRPRPGNWPRP — higher, 0.701
- RRIRGRPPRLPRPRPRPASGPRP — higher, 0.625
- RRIRSRPPRLPRPRPRPCFGPRP — lower, -0.217
- RRIRCRPPRLPRPRPRPYGAPRP — lower, -0.569
- RRIRVRPPRLPRPRPRPNEYPRP — lower, -0.487
- RRIRYRPPRLPRPRPRPNDSPRP — lower, -0.349
- RRIRKRPPRLPRPRPRPKVIPRP — within 0.2 log units, 0.156
- RRIRPRPPRLPRPRPRPWSYPRP — lower, -0.214
- RRIRNRPPRLPRPRPRPEPGPRP — higher, 0.321
- RRIRDRPPRLPRPRPRPGSPPRP — within 0.2 log units, 0.0355
- RRIRYRPPRLPRPRPRPICVPRP — lower, -0.293
- RRIRPRPPRLPRPRPRPNGGPRP — lower, -0.305
- RRIRTRPPRLPRPRPRPASWPRP — higher, 0.733
- RRIRERPPRLPRPRPRPARFPRP — within 0.2 log units, 0.168
- RRIRTRPPRLPRPRPRPMQEPRP — within 0.2 log units, -0.0701
- RRIRRRPPRLPRPRPRPMADPRP — higher, 0.357
- RRIRHRPPRLPRPRPRPGHTPRP — within 0.2 log units, 0.105
- RRIRSRPPRLPRPRPRPRHHPRP — within 0.2 log units, -0.163
- RRIRRRPPRLPRPRPRPLICPRP — within 0.2 log units, 0.119
- RRIRIRPPRLPRPRPRPMRTPRP — within 0.2 log units, 0.0509
- RRIRWRPPRLPRPRPRPSPNPRP — within 0.2 log units, 0.106
- RRIRRRPPRLPRPRPRPNDRPRP — higher, 0.205
- RRIRFRPPRLPRPRPRPSCNPRP — lower, -0.714
- RRIRNRPPRLPRPRPRPENAPRP — within 0.2 log units, -0.133
- RRIRTRPPRLPRPRPRPIMLPRP — lower, -0.32
- RRIRFRPPRLPRPRPRPPKVPRP — within 0.2 log units, 0.0991
- RRIRARPPRLPRPRPRPLKKPRP — within 0.2 log units, 0.0777
- RRIRTRPPRLPRPRPRPNHEPRP — within 0.2 log units, -0.143
- RRIRQRPPRLPRPRPRPDNEPRP — lower, -0.359
- RRIRSRPPRLPRPRPRPVISPRP — within 0.2 log units, 0.141
- RRIRRRPPRLPRPRPRPYIGPRP — lower, -0.399
- RRIRPRPPRLPRPRPRPQWDPRP — lower, -0.355
- RRIRLRPPRLPRPRPRPLLYPRP — lower, -0.326
- RRIRLRPPRLPRPRPRPYLVPRP — lower, -1.06
- RRIRARPPRLPRPRPRPDCDPRP — higher, 0.214
- RRIRRRPPRLPRPRPRPKTLPRP — within 0.2 log units, 0.146
- RRIRERPPRLPRPRPRPGQVPRP — within 0.2 log units, 0.126
- RRIRIRPPRLPRPRPRPADSPRP — lower, -0.325
- RRIRNRPPRLPRPRPRPHDPPRP — within 0.2 log units, -0.202
- RRIRCRPPRLPRPRPRPFLKPRP — lower, -0.639
- RRIRNRPPRLPRPRPRPDRMPRP — lower, -0.282
- RRIRDRPPRLPRPRPRPCRPPRP — within 0.2 log units, 0.0754
- RRIRFRPPRLPRPRPRPYNLPRP — lower, -0.322
- RRIRQRPPRLPRPRPRPKNLPRP — within 0.2 log units, -0.186
- RRIRKRPPRLPRPRPRPSQCPRP — within 0.2 log units, 0.127
- RRIRVRPPRLPRPRPRPMTAPRP — within 0.2 log units, -0.12
- RRIRDRPPRLPRPRPRPSCGPRP — higher, 0.301
- RRIRGRPPRLPRPRPRPNCCPRP — higher, 0.245
- RRIRTRPPRLPRPRPRPEHGPRP — within 0.2 log units, 0.0391
- RRIRCRPPRLPRPRPRPMPAPRP — higher, 0.849
- RRIRARPPRLPRPRPRPEHKPRP — within 0.2 log units, 0.0692
- RRIRNRPPRLPRPRPRPCGPPRP — within 0.2 log units, -0.0549
- RRIRTRPPRLPRPRPRPFQKPRP — within 0.2 log units, -0.0018
- RRIRLRPPRLPRPRPRPDQTPRP — within 0.2 log units, 0.0206
- RRIRQRPPRLPRPRPRPGHGPRP — within 0.2 log units, -0.124
- RRIRSRPPRLPRPRPRPFYNPRP — lower, -0.54
- RRIRFRPPRLPRPRPRPQCWPRP — within 0.2 log units, 0.0388
- RRIRRRPPRLPRPRPRPGWYPRP — higher, 0.205
- RRIRLRPPRLPRPRPRPRWHPRP — higher, 0.199
- RRIRPRPPRLPRPRPRPESIPRP — within 0.2 log units, -0.0804
- RRIRCRPPRLPRPRPRPCMEPRP — lower, -0.681
- RRIRRRPPRLPRPRPRPQIWPRP — higher, 0.279
- RRIRGRPPRLPRPRPRPEMKPRP — higher, 0.73
- RRIRERPPRLPRPRPRPKENPRP — within 0.2 log units, -0.135
- RRIRPRPPRLPRPRPRPNTNPRP — lower, -0.329
- RRIRKRPPRLPRPRPRPPVSPRP — within 0.2 log units, 0.0866
- RRIRWRPPRLPRPRPRPQRVPRP — higher, 2.3
- RRIRVRPPRLPRPRPRPDQQPRP — within 0.2 log units, 0.021
- RRIRPRPPRLPRPRPRPTAMPRP — within 0.2 log units, 0.0577
- RRIRQRPPRLPRPRPRPVMNPRP — within 0.2 log units, 0.0954
- RRIRTRPPRLPRPRPRPCIAPRP — lower, -0.226
- RRIRTRPPRLPRPRPRPWCGPRP — within 0.2 log units, -0.0198
- RRIRERPPRLPRPRPRPWRWPRP — within 0.2 log units, 0.0174
- RRIRIRPPRLPRPRPRPGIGPRP — within 0.2 log units, 0.127
- RRIRNRPPRLPRPRPRPLNYPRP — lower, -0.29
- RRIRDRPPRLPRPRPRPTLPPRP — within 0.2 log units, -0.027
- RRIRFRPPRLPRPRPRPEWLPRP — higher, 0.402
- RRIRFRPPRLPRPRPRPAKRPRP — higher, 0.21
- RRIRDRPPRLPRPRPRPKHTPRP — within 0.2 log units, 0.136
- RRIRGRPPRLPRPRPRPQEMPRP — within 0.2 log units, 0.0954
- RRIRPRPPRLPRPRPRPYMQPRP — lower, -0.681
- RRIRTRPPRLPRPRPRPSNHPRP — lower, -0.666
- RRIRVRPPRLPRPRPRPCIMPRP — lower, -0.514
- RRIRSRPPRLPRPRPRPCFDPRP — within 0.2 log units, 0.11
- RRIRVRPPRLPRPRPRPKLKPRP — within 0.2 log units, 0.00388
- RRIRWRPPRLPRPRPRPKRTPRP — higher, 0.668
- RRIRERPPRLPRPRPRPYEFPRP — within 0.2 log units, 0.00902
- RRIRRRPPRLPRPRPRPYPVPRP — within 0.2 log units, 0.0514
- RRIRWRPPRLPRPRPRPLWNPRP — within 0.2 log units, 0.169
- RRIRHRPPRLPRPRPRPLIDPRP — lower, -0.408
- RRIRMRPPRLPRPRPRPGMCPRP — within 0.2 log units, 0.19
- RRIRNRPPRLPRPRPRPSKAPRP — within 0.2 log units, -0.0014
- RRIRTRPPRLPRPRPRPTCQPRP — higher, 0.234
- RRIRSRPPRLPRPRPRPHWAPRP — within 0.2 log units, -0.0673
- RRIRQRPPRLPRPRPRPDGDPRP — within 0.2 log units, -0.0112
- RRIRTRPPRLPRPRPRPLEFPRP — within 0.2 log units, -0.0903
- RRIRQRPPRLPRPRPRPCAIPRP — within 0.2 log units, -0.0067
- RRIRIRPPRLPRPRPRPFKAPRP — lower, -0.431
- RRIRERPPRLPRPRPRPRNEPRP — lower, -0.473
- RRIRTRPPRLPRPRPRPDHDPRP — within 0.2 log units, 0.0257
- RRIRIRPPRLPRPRPRPPWDPRP — within 0.2 log units, 0.0808
- RRIRLRPPRLPRPRPRPGICPRP — within 0.2 log units, 0.126
- RRIRERPPRLPRPRPRPHQRPRP — within 0.2 log units, 0.0138
- RRIRFRPPRLPRPRPRPEEFPRP — within 0.2 log units, -0.0316
- RRIRPRPPRLPRPRPRPAPMPRP — higher, 0.284
- RRIRARPPRLPRPRPRPPCKPRP — higher, 0.204
- RRIRFRPPRLPRPRPRPPNTPRP — within 0.2 log units, -0.0857
- RRIRPRPPRLPRPRPRPYLQPRP — lower, -0.831
- RRIRFRPPRLPRPRPRPKISPRP — lower, -0.596
- RRIRHRPPRLPRPRPRPYILPRP — lower, -0.576
- RRIRGRPPRLPRPRPRPYRIPRP — within 0.2 log units, 0.178
- RRIRWRPPRLPRPRPRPDGWPRP — higher, 1.12
- RRIRRRPPRLPRPRPRPNGTPRP — higher, 0.219
- RRIRTRPPRLPRPRPRPAATPRP — higher, 0.247
- RRIRARPPRLPRPRPRPSQSPRP — within 0.2 log units, 0.0538
- RRIRCRPPRLPRPRPRPSQLPRP — lower, -0.357
- RRIRTRPPRLPRPRPRPEENPRP — within 0.2 log units, -0.0317
- RRIRDRPPRLPRPRPRPRYWPRP — within 0.2 log units, 0.152
- RRIRNRPPRLPRPRPRPEPAPRP — higher, 0.88
- RRIRWRPPRLPRPRPRPNPWPRP — higher, 0.265
- RRIRYRPPRLPRPRPRPDRLPRP — lower, -0.216
- RRIRHRPPRLPRPRPRPHQYPRP — lower, -0.52
- RRIRWRPPRLPRPRPRPTAHPRP — higher, 0.306
- RRIRYRPPRLPRPRPRPGIWPRP — within 0.2 log units, 0.138
- RRIRPRPPRLPRPRPRPRIIPRP — within 0.2 log units, -0.18
- RRIRGRPPRLPRPRPRPHSSPRP — within 0.2 log units, -0.144
- RRIRQRPPRLPRPRPRPHTVPRP — lower, -0.484
- RRIRKRPPRLPRPRPRPGMFPRP — within 0.2 log units, -0.126
- RRIRKRPPRLPRPRPRPRWQPRP — within 0.2 log units, 0.189
- RRIRLRPPRLPRPRPRPQQTPRP — within 0.2 log units, 0.168
